“And” between values parts separate entries of the source, which are not always exact repeats. Identical values can stand only once. Like-named read-outs stand apart in the source and are kept apart here. No end group written: not given here. *: point of attachment. 125I = [125I]*
Experiments:
[1] = molecular target: human parathyroid hormone type 1 receptor (PTH1 receptor) (human) (UniProt Q03431); test: displacement of [125I][Nle8,21,Tyr34]rPTH(1-34), HEK293 membranes, 10 µM GTPγS
[2] = molecular target: human parathyroid hormone type 2 receptor (PTH2 receptor) (human) (UniProt P49190); test: membrane radioligand binding, absence of GTPγS
[3] = molecular target: human parathyroid hormone type 2 receptor (PTH2 receptor) (human) (UniProt P49190); test: membrane radioligand binding, presence of GTPγS
[4] = molecular target: human parathyroid hormone type 1 receptor (PTH1 receptor) (human) (UniProt Q03431); test: radioligand binding, HEK293 membranes, 10 µM GTPγS, 43 000 cpm added
[5] = molecular target: C-terminal hemaglutinin-tagged human PTH1 receptor (Example 11) (human) (UniProt Q03431); test: cell-based or functional assay
[6] = molecular target: human parathyroid hormone type 2 receptor (PTH2 receptor) (human) (UniProt P49190); test: cell-based or functional assay
[7] = molecular target: human parathyroid hormone type 1 receptor (PTH1 receptor) (human) (UniProt Q03431); test: Motulsky and Mahan kinetic competition with [125I]TIP(7-39), HEK293 membranes
rat PTH2 receptor = rat PTH2 receptor (rat, UniProt P70555 25-546); test: cell-based or functional assay
[8] = molecular target: human parathyroid hormone type 1 receptor (PTH1 receptor) (human) (UniProt Q03431); test: radioligand binding to the PTH1 receptor
[9] = molecular target: human parathyroid hormone type 1 receptor (PTH1 receptor) (human) (UniProt Q03431); test: direct dissociation of the radioligand from the PTH1 receptor
[10] = molecular target: human parathyroid hormone type 2 receptor (PTH2 receptor) (human) (UniProt P49190); test: displacement of [125I]TIP39, HEK293 membranes, centrifugation assay
[11] = molecular target: human parathyroid hormone type 2 receptor (PTH2 receptor) (human) (UniProt P49190); test: displacement of [125I]TIP39, HEK293 membranes, with against without GTPγS
[12] = molecular target: human parathyroid hormone type 2 receptor (PTH2 receptor) (human) (UniProt P49190); test: cell-based or functional assay; remark: listed apart in the source
[13] = molecular target: human parathyroid hormone type 1 receptor (PTH1 receptor) (human) (UniProt Q03431); test: cell-based or functional assay
[14] = molecular target: T1, human parathyroid hormone type 1 receptor (PTH1 receptor) (human, UniProt Q03431 27-593); test: cell-based or functional assay
T1 sequence (looked up): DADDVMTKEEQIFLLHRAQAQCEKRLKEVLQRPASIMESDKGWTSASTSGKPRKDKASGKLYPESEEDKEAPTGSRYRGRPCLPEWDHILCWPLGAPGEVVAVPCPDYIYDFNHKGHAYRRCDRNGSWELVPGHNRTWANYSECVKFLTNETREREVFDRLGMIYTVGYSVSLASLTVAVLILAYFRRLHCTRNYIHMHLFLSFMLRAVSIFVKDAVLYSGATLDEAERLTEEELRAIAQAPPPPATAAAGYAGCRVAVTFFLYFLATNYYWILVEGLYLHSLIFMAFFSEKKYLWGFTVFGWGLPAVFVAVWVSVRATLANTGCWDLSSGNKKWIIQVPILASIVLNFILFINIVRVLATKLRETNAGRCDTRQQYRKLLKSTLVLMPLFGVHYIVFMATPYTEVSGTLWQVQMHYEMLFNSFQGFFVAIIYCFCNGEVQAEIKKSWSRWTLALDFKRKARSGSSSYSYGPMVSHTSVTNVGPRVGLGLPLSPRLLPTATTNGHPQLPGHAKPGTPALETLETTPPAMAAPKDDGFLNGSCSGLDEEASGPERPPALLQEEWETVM

[15] = molecular target: T2, human parathyroid hormone type 2 receptor (PTH2 receptor) (human, UniProt P49190 25-550); test: displacement of [125I]TIP39, 293PTH2 membranes, filtration assay
T2 construct: whole, on cells; also called human PTH2 receptor; hPTH2 receptor

[16] = molecular target: T1, human parathyroid hormone type 1 …; test: radioligand displacement, 293PTH1 membranes, centrifugation assay, 10 µM GTPγS
[17] = molecular target: T2, human parathyroid hormone type 2 …; test: displacement of [125I]TIP39, 293PTH2 membranes, centrifugation assay, 10 µM GTPγS
Procedure: (§1) This assay measures the affinity of ligands for the free receptor, uncoupled from G-protein.
(§2) A similar assay design was used for the PTH1 and PTH2 receptor, in which radiolabeled agonist binding was displaced by the unlabeled ligands in the presence of 10 μM GTPγS. Briefly, cell membranes (45 μg), radioligand (50 000 cpm) and unlabeled ligand were incubated in a final volume of 1 ml assay buffer (20 mM HEPES, 100 mM NaCl, 1 mM EDTA, 3 mM MgSO₄ pH 7.5, supplemented with 0.3% non-fat dried milk powder, 100 μM (4-(2-aminoethyl))-benzenesulfonylflouride (AEBSF), 1 μg/ml bacitracin and 10 μM GTPγS) for two hours at 21° C. Membranes were collected at 18 000×g, the surface of the pellet gently washed and the radioactivity counted as described in Examples. […] To prevent greater than 20% of the total radioligand added from binding to the membranes, 15-20 μg of membranes from transfected cells were used, made up to 45 μg with membranes from non-transfected cells.

[18] = molecular target: T1, human parathyroid hormone type 1 …; test: displacement of [125I][Nle8,21,Tyr34]rPTH(1-34), 293PTH1 membranes, filtration assay
Source text: Under the conditions of the assay, the receptor-G-protein complex is the predominant receptor state detected.

[19] = molecular target: T1, human parathyroid hormone type 1 …; test: displacement of [125I][Nle8,21,Tyr34]rPTH(1-34), 293PTH1 membranes, centrifugation assay, 10 µM GTPγS
Procedure: as §1, §2

human glucagon receptor = molecular target: T3, human glucagon receptor (human, UniProt P47871 26-477); test: displacement of [125I]glucagon, intact COS-7 cells
T3 construct: whole, on cells

[20] = molecular target: T1, human parathyroid hormone type 1 …; test: saturation binding, HEK293 membranes, filtration
Procedure: (§3) Total binding data were analyzed using Equation 3. For presentation purposes the non-specific binding has been subtracted and specific binding values expressed as pmol radioligand bound per mg of membrane protein. Data points are mean±s.e.m. of triplicate determinations. The experiment was performed three times with similar results. In most cases the error bars are enclosed within the symbol. […] Linear regression analysis was performed on pooled data to obtain estimates of kₒₙ (provided by the gradient) and koff (provided by the y intercept). […] Dissociation time course. The line is the best fit of the data to a mono-exponential function. […] Data points are the mean±s.e.m. of triplicate measurements. The experiment was performed twice with similar results. In most cases the error bars are enclosed within the symbol.
(§4) Incubations were carried out in 96-well polypropylene plates. The incubation mixture was transferred to a polyvinylidene fluoride filtration plate (MAHVN45, Millipore, Bedford, Mass.) and the membranes collected by rapid filtration using a Millipore Multiscreen vacuum manifold. […] In radioligand association experiments, radioligand and buffer were brought to 21° C. by incubation in a water bath for 15 minutes. Similarly pre-warmed membranes were then added to the wells at various time points and the assay wells harvested simultaneously.

[21] = molecular target: T1, human parathyroid hormone type 1 …; test: radioligand binding, HEK293 membranes, filtration
Procedure: Incubations were carried out in 96-well polypropylene plates. The incubation mixture was transferred to a polyvinylidene fluoride filtration plate (MAHVN45, Millipore, Bedford, Mass.) and the membranes collected by rapid filtration using a Millipore Multiscreen vacuum manifold. […] In radioligand association experiments, radioligand and buffer were brought to 21° C. by incubation in a water bath for 15 minutes.

[22] = molecular target: T1, human parathyroid hormone type 1 …; test: dissociation time course of the radioligand, HEK293 membranes
Procedure: as §3, §4

[23] = molecular target: T1, human parathyroid hormone type 1 …; test: y intercept of kon(obs) against radioligand concentration, HEK293 membranes
Procedure: as §3, §4

[24] = molecular target: T1, human parathyroid hormone type 1 …; test: kinetically derived from association and dissociation of the radioligand, HEK293 membranes
Procedure: as §3, §4

[25] = molecular target: T1, human parathyroid hormone type 1 …; test: radioligand association kinetics, HEK293 membranes, filtration; value held constant in the fit of FIG. G
Procedure: as §3, §4

[26] = molecular target: T1, human parathyroid hormone type 1 …; test: radioligand dissociation kinetics, HEK293 membranes, filtration; value held constant in the fit of FIG. G
Procedure: as §3, §4

Sequence of human parathyroid hormone type 2 receptor (PTH2 receptor) (human) (P49190 25-550): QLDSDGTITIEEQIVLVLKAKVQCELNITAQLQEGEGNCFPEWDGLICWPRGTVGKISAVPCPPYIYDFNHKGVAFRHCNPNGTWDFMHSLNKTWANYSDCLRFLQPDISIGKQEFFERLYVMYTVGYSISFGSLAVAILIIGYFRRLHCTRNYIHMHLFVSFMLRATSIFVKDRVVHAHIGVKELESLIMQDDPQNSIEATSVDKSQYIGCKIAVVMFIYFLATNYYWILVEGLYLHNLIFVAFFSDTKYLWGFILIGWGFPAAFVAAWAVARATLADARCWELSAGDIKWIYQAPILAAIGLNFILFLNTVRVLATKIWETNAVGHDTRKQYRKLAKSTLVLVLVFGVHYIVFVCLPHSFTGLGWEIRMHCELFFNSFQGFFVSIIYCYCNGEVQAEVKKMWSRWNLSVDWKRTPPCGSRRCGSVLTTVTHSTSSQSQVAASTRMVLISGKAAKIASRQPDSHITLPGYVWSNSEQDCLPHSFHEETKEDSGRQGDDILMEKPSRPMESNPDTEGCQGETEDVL
T2 sequence (P49190 25-550): as above
Sequence of rat PTH2 receptor (P70555 25-546): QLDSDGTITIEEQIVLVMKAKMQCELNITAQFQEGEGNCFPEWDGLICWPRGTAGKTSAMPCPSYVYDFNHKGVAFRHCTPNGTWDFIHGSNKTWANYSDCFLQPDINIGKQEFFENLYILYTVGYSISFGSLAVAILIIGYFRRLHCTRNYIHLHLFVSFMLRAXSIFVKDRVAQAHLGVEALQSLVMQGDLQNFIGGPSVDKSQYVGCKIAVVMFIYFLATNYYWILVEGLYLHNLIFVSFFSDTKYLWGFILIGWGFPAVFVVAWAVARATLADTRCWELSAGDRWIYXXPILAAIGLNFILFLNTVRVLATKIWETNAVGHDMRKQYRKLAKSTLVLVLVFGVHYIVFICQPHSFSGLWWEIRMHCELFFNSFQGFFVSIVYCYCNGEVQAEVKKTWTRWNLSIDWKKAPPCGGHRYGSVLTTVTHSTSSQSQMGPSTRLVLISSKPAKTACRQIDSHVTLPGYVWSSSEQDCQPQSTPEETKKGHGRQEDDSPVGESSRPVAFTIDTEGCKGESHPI
T3 sequence (P47871 26-477): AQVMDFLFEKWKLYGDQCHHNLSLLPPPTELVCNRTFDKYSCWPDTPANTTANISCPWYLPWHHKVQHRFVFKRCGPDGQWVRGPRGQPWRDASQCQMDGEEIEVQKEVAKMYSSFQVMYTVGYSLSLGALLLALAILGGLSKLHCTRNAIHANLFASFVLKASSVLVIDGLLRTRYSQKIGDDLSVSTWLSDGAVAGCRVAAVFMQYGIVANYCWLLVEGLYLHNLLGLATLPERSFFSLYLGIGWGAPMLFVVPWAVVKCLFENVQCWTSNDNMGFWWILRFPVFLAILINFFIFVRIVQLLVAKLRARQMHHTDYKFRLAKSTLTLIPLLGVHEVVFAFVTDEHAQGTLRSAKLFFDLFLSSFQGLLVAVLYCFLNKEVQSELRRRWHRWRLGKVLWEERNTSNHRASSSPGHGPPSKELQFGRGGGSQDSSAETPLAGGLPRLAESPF

[D-Tryp^12, Tyr^34]bPTH(7-34) amide (from UniProt P01268 38-65) (peptide)
fold difference of IC50 against TIP(7-39) [1]: 7.3 fold

[^125I][Nle^8,21, Tyr^34]rPTH(1-34) (from UniProt P04089 32-65) (peptide)
signal-to-noise ratio [2]: 3.5 fold
signal-to-noise ratio [3]: 2 fold
total binding (cpm) [4]: 4400 cpm and 4800 cpm

[Nle^8,18, Tyr^34]bPTH(3-34) amide (from UniProt P01268 34-65) (peptide)
Emax, % of the maximal response to rPTH(1-34) (cAMP, COS-7 cells) [5]: 26%
-logEC50 (cAMP accumulation) [6]: 8.28
EC50 (cAMP accumulation) [6]: 5.2 nM
Emax, % of response to 1 µM hPTH(1-34) [6]: 37%
koff [7]: 0.0005 s⁻¹

[Nle^8,18, D-Tryp^12, Tyr^34]bPTH(7-34) amide (from UniProt P01268 38-65) (peptide)
pA2 (shift of rPTH(1-34) cAMP EC50 by 1 µM antagonist) [6]: 6.5
pA2 as concentration [6]: 320 nM
pA2 (shift of rPTH(1-34) cAMP EC50 by 1 µM antagonist) (rat PTH2 receptor): 6.5
pA2 as concentration (rat PTH2 receptor): 310 nM

PTHrP(1-34) (from UniProt P12272 37-70) (peptide)
Emax, % of response to 1 µM hPTH(1-34) [6]: 25%
Emax, % of response of hPTH2r to 1 µM hPTH(1-34) (rat PTH2 receptor): 7%
Emax, % of response of rPTH2r to 3 µM rPTH(1-34) (rat PTH2 receptor): 14%

hPTH(1-84) (from UniProt P01270 32-115) (peptide)
Emax, % of response to 1 µM hPTH(1-34) [6]: 79%

[^125I][Nle^8,18, Tyr^34]bPTH(3-34) (from UniProt P01268 34-65) (peptide)
signal-to-noise ratio [8]: 6
koff [9]: 0.00102 s⁻¹

[Nle^8,18, Tyr^34]bPTH(1-34) (from UniProt P01268 32-65) (peptide)
-logEC50 (cAMP accumulation) [6]: 8.41
EC50 (cAMP accumulation) [6]: 3.9 nM
Emax, % of response to 1 µM hPTH(1-34) [6]: 76%
-logEC50 (cAMP accumulation) (rat PTH2 receptor): 6.85
EC50 (cAMP accumulation) (rat PTH2 receptor): 141 nM
Emax, % of response of hPTH2r to 1 µM hPTH(1-34) (rat PTH2 receptor): 5%
Emax, % of response of rPTH2r to 3 µM rPTH(1-34) (rat PTH2 receptor): 19%

[Nle^8,21, Tyr^34]rPTH(1-34) amide (from UniProt P04089 32-65) (peptide)
IC50 [10]: 1.1 nM
fold increase of IC50 with GTPγS [11]: 1.5 fold

hPTH(1-34) (from UniProt P01270 32-65) (peptide)
maximal ligand-stimulated cAMP production [6]: 4 pmol.well^-1
maximal ligand-stimulated cAMP production (25 µl assay volume) [6]: 6 pmol.well^-1
Emax, % of response of hPTH2r to 1 µM hPTH(1-34) (rat PTH2 receptor): 22%
Emax, % of response of rPTH2r to 3 µM rPTH(1-34) (rat PTH2 receptor): 43%

B1: rPTH(1-84) (peptide, UniProt P04089 32-115, looked up)
peptide: AVSEIQLMHNLGKHLASVERMQWLRKKLQDVHNFVSLGVQMAAREGSYQRPTKKEENVLVDGNSKSLGEGDKADVDVLVKAKSQ
-logEC50 (cAMP accumulation) [12]: 9.24
EC50 (cAMP accumulation) [12]: 0.58 nM
Emax, % of response to 1 µM hPTH(1-34) [12]: 98%
-logEC50 (cAMP accumulation) (rat PTH2 receptor): 7.72
EC50 (cAMP accumulation) (rat PTH2 receptor): 19 nM
Emax, % of response of hPTH2r to 1 µM hPTH(1-34) (rat PTH2 receptor): 28%
Emax, % of response of rPTH2r to 3 µM rPTH(1-34) (rat PTH2 receptor): 97%

B2: bPTH(3-34) (peptide, UniProt P01268 34-65, looked up)
peptide: SEIQFMHNLGKHLSSMERVEWLRKKLQDVHNF
-logEC50 (cAMP accumulation) [12]: 8.05
EC50 (cAMP accumulation) [12]: 8.9 nM
Emax, % of response to 1 µM hPTH(1-34) [12]: 38%

B3: rPTH(1-34) (peptide, UniProt P04089 32-65, looked up)
peptide: AVSEIQLMHNLGKHLASVERMQWLRKKLQDVHNF
modifications: also: binding, rPTH(1-34) denotes the [Nle8,21, Tyr34] analogue
EC50 (cAMP production, HEK293 cells) [13]: 0.5 nM
-logEC50 (cAMP accumulation) [12]: 9.39
EC50 (cAMP accumulation) [12]: 0.41 nM
EC50 (cAMP production, HEK293 cells) [12]: 58000 nM
EC50 (cAMP) [12]: 0.15 nM
Emax [12]: 85%
Emax, % of response to 1 µM hPTH(1-34) [12]: 94%
-logEC50 (cAMP accumulation) (rat PTH2 receptor): 7.09
EC50 (cAMP accumulation) (rat PTH2 receptor): 81 nM
EC50 (cAMP) (rat PTH2 receptor): 49 nM
Emax, % of response of hPTH2r to 1 µM hPTH(1-34) (rat PTH2 receptor): 46%
Emax, % of response of rPTH2r to 3 µM rPTH(1-34) (rat PTH2 receptor): 100%
maximal ligand-stimulated cAMP production (50 µl-volume assays) (rat PTH2 receptor): 2.1 pmol.well^-1

B4: TIP(7-39) (peptide)
peptide: DAAFRERARLLAALERRHWLNSYMHKLLVLDAP
notes: also called bTIP(7-39)
fold-shift of rPTH(1-34) EC50 by 1 µM TIP(7-39), 20% human plasma [14]: 11 fold
fold-shift of rPTH(1-34) EC50 by 1 µM TIP(7-39), absence of plasma [14]: 7 fold
fold lower affinity than full-length TIP39 [15]: 70 fold
fold higher affinity than TIP39 [16]: 12 fold
-logIC50 [17]: 7.01
IC50 [17]: 98 nM
fold lower binding potency than full-length TIP39 [17]: 32 fold
fold higher affinity than TIP39 [18]: 5.6 fold
-logIC50 [19]: 8.3
IC50 [19]: 5 nM

B5: tuberinfundibular peptide of 39 residues (TIP39), bovine sequence, synthetic (peptide)
peptide: SLALADDAAFRERARLLAALERRHWLNSYMHKLLVLDAP
notes: Chemically synthesized 39 residue peptide (Anaspec or Biomolecules Midwest); also called bTIP39; synthetic hypothalamic peptide
maximal effect against PTH (rat PTH2 receptor): ~3 fold
binding result (human glucagon receptor): no binding (tested: 1 µM)

B6: [^125I]TIP(7-39) (peptide)
peptide: DAAFRERARLLAALERRHWLNSY(125I)MHKLLVLDAP
notes: 2000 Ci/mmol; also called radiolabeled TIP(7-39)
Kd [20]: 1.3 nM
total binding: non-specific binding ratio [21]: ~5
koff [22]: 0.000833 s⁻¹
koff [23]: 0.00128 s⁻¹
Kd [24]: 0.57 nM
kon [25]: 1.48e+06 M⁻¹ s⁻¹
koff [26]: 0.00085 s⁻¹

B7: TIP(2-39) (peptide)
peptide: LALADDAAFRERARLLAALERRHWLNSYMHKLLVLDAP
notes: N-terminally truncated TIP39 analogue from Biomolecules Midwest
binding result [15]: binds

B8: TIP(3-39) (peptide)
peptide: ALADDAAFRERARLLAALERRHWLNSYMHKLLVLDAP
binding result [15]: binds

B9: TIP(5-39) (peptide)
peptide: ADDAAFRERARLLAALERRHWLNSYMHKLLVLDAP
binding result [15]: binds
